Values joined by “and” are separate entries in the source; they are usually repeats but may differ in a detail not shown here. Equal entries are not always repeated.

Experiment [1] concerns the target wildtype Arabidopsis thaliana (At) ProXp-ala (Arabidopsis thaliana). The experiment can be described thus: SEC-MALS; Superdex 200 Increase 10/300 GL in 50 mM Hepes pH 6.8, 30 mM KCl, 2 mM DTT, 1 mM MgCl2; 100 μl of 3 mg/ml WT, 6 mg/ml ΔCTD or 1.5 mg/ml CTD injected; self-association.
Experiment [2] addresses CTD At ProXp-ala (Arabidopsis thaliana). The experiment is described as above.

In experiment [1], “wildtype Arabidopsis thaliana (At) ProXp-ala (enzyme)” gave a stoichiometry N of 2.

With CTD At ProXp-ala (domain or fragment), in experiment [2], the stoichiometry N was 2 and 4.

By stoichiometry N is commonly meant the number of molecules, sites or subunits per partner or assembly.

(Values after PMC9425024.)
